This assay addresses CD28, endogenous in primary mouse CD4+ T cells (mouse) (UniProt P31041). Briefly: cell-based or functional assay.

Chain of CD28, endogenous in primary mouse CD4+ T cells (mouse) (P31041 20-218): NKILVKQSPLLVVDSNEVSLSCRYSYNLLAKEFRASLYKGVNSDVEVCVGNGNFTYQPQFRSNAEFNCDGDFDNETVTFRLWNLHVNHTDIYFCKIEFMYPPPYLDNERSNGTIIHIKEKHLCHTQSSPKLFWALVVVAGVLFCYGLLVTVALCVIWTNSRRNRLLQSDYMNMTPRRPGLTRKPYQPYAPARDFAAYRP

In turn, “Myc-tagged PKCθ V3 domain (aa 282-379 of human PKCθ, N-terminal Myc tag) (from UniProt Q04759 282-379)” had a Treg (FoxP3+) differentiation of 4 fold, an inhibition of Th2 differentiation of 75% and an inhibition of Th17 differentiation of 75%.

The values above are taken from patent publication US20180335433A1, “COMPOSITIONS TARGETING PKC-THETA AND USES AND METHODS OF TREATING PKC-THETA PATHOLOGIES, ADVERSE IMMUNE RESPONSES AND DISEASES” (La Jolla Institute for Allergy and Immunology, priority 2011, published 2018).
